Assay results taken from patent US20240360223A1 (DRAGONFLY THERAPEUTICS, published 2024).
Where a chain is given by its changes, count along the chain named. Values joined by “and” are separate entries in the source; they are usually repeats but may differ in a detail not shown here. Identical values can stand only once. Like-named read-outs stand apart in the source and are kept apart here.

Experiments:
[1] = target: T1, human NKG2D (recombinant mFc-tagged dimer) (human, UniProt P26718 78-216); experiment: SPR, steady state, control
T1 construct: also called hNKG2D
T1 sequence (looked up): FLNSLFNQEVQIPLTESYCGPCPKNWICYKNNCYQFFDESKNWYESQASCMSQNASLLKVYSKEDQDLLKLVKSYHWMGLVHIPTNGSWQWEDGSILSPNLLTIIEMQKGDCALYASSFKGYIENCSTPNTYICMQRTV

human CD64 [2] = target: T2, human CD64 (human, UniProt P12314 16-288, limits assumed); experiment: SPR
T2 construct: also called FcγRI
T2 sequence (P12314 16-288 limits assumed): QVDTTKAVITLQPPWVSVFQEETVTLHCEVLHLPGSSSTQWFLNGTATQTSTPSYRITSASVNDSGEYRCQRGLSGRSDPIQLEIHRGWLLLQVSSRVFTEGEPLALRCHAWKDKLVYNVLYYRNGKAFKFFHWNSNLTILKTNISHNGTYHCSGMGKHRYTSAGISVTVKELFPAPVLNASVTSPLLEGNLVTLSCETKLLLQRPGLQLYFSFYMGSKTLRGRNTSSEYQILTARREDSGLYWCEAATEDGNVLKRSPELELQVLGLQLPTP
Procedure: Binding analyses as described in this Example were performed using SPR, as described in Example 4.

[3] = target: T3, cynomolgus NKG2D (recombinant mFc-tagged dimer) (cynomolgus, UniProt P61252 78-216); experiment: SPR, 1:1 kinetic fit
T3 construct: also called cyno NKG2D
T3 sequence (looked up): T1 sequence (looked up) with D38N, T128I
Source text: (§1) NKG2D is a native dimer, therefore recombinant mFc-tagged NKG2D dimer was used for this experiment. Two different fits were utilized to obtain the equilibrium affinity data: steady state affinity fit and kinetic fit.

[4] = target: T4, human BAFF-R expressed on cells (human, UniProt Q96RJ3 1-184); experiment: flow cytometry, BJAB cells
T4 construct: Cell surface BAFF-R, endogenous on B cell lines and primary B cells or overexpressed on isogenic CHO cells; also called hBAFF-R; hBAFF-R-CHO

[5] = target: T4, human BAFF-R expressed on cells; experiment: flow cytometry, BJAB cells, control
[6] = target: T4, human BAFF-R expressed on cells; experiment: flow cytometry, RL cells
cynomolgus CD16 [7] = target: T5, cynomolgus CD16 (cynomolgus, UniProt Q8SPW2 17-208, limits assumed); experiment: SPR
T5 construct: also called Cyno CD16; cynomolgus FcγRIII
T5 sequence (Q8SPW2 17-208 limits assumed): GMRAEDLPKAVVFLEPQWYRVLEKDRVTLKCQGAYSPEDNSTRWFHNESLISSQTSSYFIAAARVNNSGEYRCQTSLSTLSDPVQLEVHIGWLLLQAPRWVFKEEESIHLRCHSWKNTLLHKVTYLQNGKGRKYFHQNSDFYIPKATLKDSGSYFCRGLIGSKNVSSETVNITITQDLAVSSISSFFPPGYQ

[8] = target: T1, human NKG2D (recombinant mFc-tagged …); experiment: SPR, steady state, after 4 weeks at 40 °C
[9] = target: T4, human BAFF-R expressed on cells; experiment: KinExA, BAFF-R-CHO cells
[10] = target: T1, human NKG2D (recombinant mFc-tagged …); experiment: SPR, average
Source text: as §1

cynomolgus CD16 [11] = target: T5, cynomolgus CD16; experiment: SPR; remark: listed apart in the source
cynomolgus CD16 [12] = target: T5, cynomolgus CD16; experiment: SPR, cynomolgus FcγRIII, summary table
human CD16a F158 [13] = target: T6, human CD16a F158 (human, UniProt P08637 17-208); experiment: SPR, steady state, average
T6 sequence (P08637 17-208 limits assumed): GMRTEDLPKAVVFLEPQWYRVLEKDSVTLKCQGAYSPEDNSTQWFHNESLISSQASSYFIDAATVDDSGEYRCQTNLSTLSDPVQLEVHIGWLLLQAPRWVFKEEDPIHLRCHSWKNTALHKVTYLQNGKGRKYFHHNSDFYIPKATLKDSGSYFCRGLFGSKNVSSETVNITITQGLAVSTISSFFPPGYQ

human CD16a V158 [14] = target: T7, human CD16a V158 (human, UniProt P08637 17-208); experiment: SPR, kinetic fit, average
T7 construct: also called hCD16aV; hCD16a V158
T7 sequence (P08637 17-208 F176V limits assumed): as the sequence (P08637 17-208 limits assumed) above, with F160V counted along it

human CD16b [15] = target: T8, human CD16b (human, UniProt O75015 17-200, limits assumed); experiment: SPR, steady state
T8 construct: also called FcγRIIIb
T8 sequence (O75015 17-200 limits assumed): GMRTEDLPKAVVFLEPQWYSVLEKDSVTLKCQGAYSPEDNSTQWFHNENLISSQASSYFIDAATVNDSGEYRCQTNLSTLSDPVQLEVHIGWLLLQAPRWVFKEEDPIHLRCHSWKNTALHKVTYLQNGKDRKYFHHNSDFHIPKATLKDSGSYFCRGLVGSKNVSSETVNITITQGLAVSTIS

human CD16b [16] = target: T8, human CD16b; experiment: SPR, recombinant receptor; reference trastuzumab
human CD32a R131 = target: T9, human CD32a R131 (human, UniProt P12318 36-218, limits assumed); experiment: SPR, recombinant receptor; reference trastuzumab
T9 construct: also called FcγRIIa R131
T9 sequence (looked up): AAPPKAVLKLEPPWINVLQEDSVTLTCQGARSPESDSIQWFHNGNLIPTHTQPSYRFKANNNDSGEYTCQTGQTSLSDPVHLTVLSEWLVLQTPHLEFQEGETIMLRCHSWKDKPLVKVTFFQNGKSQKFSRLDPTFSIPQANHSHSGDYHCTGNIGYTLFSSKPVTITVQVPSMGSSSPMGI

human CD32a H131 = target: T10, human CD32a H131 (human, UniProt P12318 36-218, limits assumed); experiment: SPR, recombinant receptor; reference trastuzumab
T10 sequence (looked up): T9 sequence (looked up) with R132H

human CD16a V158 [17] = target: T7, human CD16a V158; experiment: SPR, recombinant receptor; reference trastuzumab
human CD16a F158 [18] = target: T6, human CD16a F158; experiment: SPR, recombinant receptor; reference trastuzumab
human CD64 [19] = target: T2, human CD64; experiment: SPR, recombinant receptor; reference trastuzumab
cynomolgus CD16 [20] = target: T5, cynomolgus CD16; experiment: SPR, recombinant receptor; reference trastuzumab
human CD32b = target: T11, human CD32b (human, UniProt P31994 46-217, limits assumed); experiment: SPR, recombinant receptor; reference trastuzumab
T11 construct: also called FcγRIIb
T11 sequence (looked up): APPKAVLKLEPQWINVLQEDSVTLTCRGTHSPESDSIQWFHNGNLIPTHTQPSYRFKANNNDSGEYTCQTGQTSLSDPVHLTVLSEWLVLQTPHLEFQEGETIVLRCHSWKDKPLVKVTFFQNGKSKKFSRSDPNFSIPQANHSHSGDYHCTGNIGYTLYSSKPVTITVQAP

human CD16a V158 [21] = target: T7, human CD16a V158; experiment: SPR, control

B1: AB1424/AB1612 F3′ TriNKET (bispecific antibody, human IgG1, kappa)
chain: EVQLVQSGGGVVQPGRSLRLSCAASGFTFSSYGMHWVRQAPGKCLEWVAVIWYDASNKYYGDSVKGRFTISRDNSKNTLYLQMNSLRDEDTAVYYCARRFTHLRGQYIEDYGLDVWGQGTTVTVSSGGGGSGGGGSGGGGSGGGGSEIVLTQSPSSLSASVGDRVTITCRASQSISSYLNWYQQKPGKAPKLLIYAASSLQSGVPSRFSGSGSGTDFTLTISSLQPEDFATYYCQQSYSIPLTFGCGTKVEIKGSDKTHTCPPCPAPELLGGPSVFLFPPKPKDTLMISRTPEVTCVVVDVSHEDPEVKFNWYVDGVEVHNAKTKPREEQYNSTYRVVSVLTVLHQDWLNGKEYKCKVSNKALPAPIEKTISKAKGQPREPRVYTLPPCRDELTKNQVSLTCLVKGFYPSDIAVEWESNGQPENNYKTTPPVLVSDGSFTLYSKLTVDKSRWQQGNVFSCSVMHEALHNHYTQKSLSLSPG
heavy: EVQLVESGGGLVKPGGSLRLSCAASGFTFSSYSMNWVRQAPGKGLEWVSSISSSSSYIYYADSVKGRFTISRDNAKNSLYLQMNSLRAEDTAVYYCARGAPIGAAAGWFDPWGQGTLVTVSSASTKGPSVFPLAPSSKSTSGGTAALGCLVKDYFPEPVTVSWNSGALTSGVHTFPAVLQSSGLYSLSSVVTVPSSSLGTQTYICNVNHKPSNTKVDKKVEPKSCDKTHTCPPCPAPELLGGPSVFLFPPKPKDTLMISRTPEVTCVVVDVSHEDPEVKFNWYVDGVEVHNAKTKPREEQYNSTYRVVSVLTVLHQDWLNGKEYKCKVSNKALPAPIEKTISKAKGQPREPQVCTLPPSRDELTENQVSLTCLVKGFYPSDIAVEWESNGQPENNYKTTPPVLDSDGSFFLYSWLTVDKSRWQQGNVFSCSVMHEALHNHYTQKSLSLSPG
light: DIQMTQSPSSVSASVGDRVTITCRASQGISSWLAWYQQKPGKAPKLLIYAASSLQSGVPSRFSGSGSGTDFTLTISSLQPEDFATYYCQQGVSFPRTFGGGTKVEIKRTVAAPSVFIFPPSDEQLKSGTASVVCLLNNFYPREAKVQWKVDNALQSGNSQESVTEQDSKDSTYSLSSTLTLSKADYEKHKVYACEVTHQGLSSPVTKSFNRGEC
notes: Chain S: anti-BAFF-R scFv-CH2-CH3; chain H: anti-NKG2D VH-CH1-CH2-CH3; chain L: anti-NKG2D VL-CL; also called AB1612-002
Kd [1]: 544 nM
Kd (human CD64 [2]): 2.9 nM and 3.1 nM and 3.4 nM and 3.2 nM
koff (human CD64 [2]): 0.00022 s⁻¹ and 0.00023 s⁻¹
kon (human CD64 [2]): 77000 M⁻¹ s⁻¹ and 73000 M⁻¹ s⁻¹ and 69000 M⁻¹ s⁻¹ and 72000 M⁻¹ s⁻¹
Kd [3]: 498 nM and 516 nM and 528 nM and 525 nM
EC50 [4]: 0.37 nM
Max FOB [4]: 16 fold over background
EC50 [5]: 0.82 nM
EC50 [6]: 0.27 nM
Max FOB [6]: 8 fold over background
koff (cynomolgus CD16 [7]): 0.02 s⁻¹ and 0.021 s⁻¹
kon (cynomolgus CD16 [7]): 78000 M⁻¹ s⁻¹ and 72000 M⁻¹ s⁻¹
Kd [8]: 522 nM
Kd [9]: 2.55 nM
koff [10]: 0.11 s⁻¹
kon [10]: 240000 M⁻¹ s⁻¹
Kd (cynomolgus CD16 [11]): 261 nM and 269 nM and 283 nM and 260 nM
koff (cynomolgus CD16 [11]): 0.02 s⁻¹ and 0.021 s⁻¹
kon (cynomolgus CD16 [11]): 78000 M⁻¹ s⁻¹ and 72000 M⁻¹ s⁻¹
Kd (cynomolgus CD16 [12]): 271 nM
Kd (human CD16a F158 [13]): 1350 nM
Kd (human CD16a V158 [14]): 129 nM
Kd (human CD16b [15]): 7000 nM and 6300 nM and 7900 nM and 6400 nM
fold difference in binding against trastuzumab (human CD16b [16]): < 3 fold
fold difference in binding against trastuzumab (human CD32a R131): < 1.2 fold
fold difference in binding against trastuzumab (human CD32a H131): < 1.2 fold
fold difference in binding against trastuzumab (human CD16a V158 [17]): < 3 fold
fold difference in binding against trastuzumab (human CD16a F158 [18]): < 3 fold
fold difference in binding against trastuzumab (human CD64 [19]): < 3 fold
fold difference in binding against trastuzumab (cynomolgus CD16 [20]): < 3 fold
fold difference in binding against trastuzumab (human CD32b): < 1.2 fold
Kd (human CD16a V158 [21]): 145 nM
koff (human CD16a V158 [21]): 0.017 s⁻¹
kon (human CD16a V158 [21]): 130000 M⁻¹ s⁻¹
